Patent publication US20240343781A1

Experiments:
Rf1 = experiment: ELISA
SARS-CoV = experiment: ELISA
WIV1 = experiment: ELISA
GX-Pangolin = experiment: ELISA
Rs4081 = experiment: ELISA
BtKY72 = experiment: ELISA
BM-4831 = experiment: ELISA
Yunnan2011 = experiment: ELISA
RmYN02 = experiment: ELISA
SHC014 = experiment: ELISA
RaTG13 = experiment: ELISA
SARS-CoV-2 Spike = experiment: SPR
[1] = molecular target: SARS-CoV Spike (SARS-CoV) (UniProt P59594); experiment: SPR

With ADG-2 the EC50 (Rf1) was > 10 µg/mL, the EC50 (SARS-CoV) was 0.002 µg/mL and the EC50 (WIV1) was 0.005 µg/mL. For the same substance, the EC50 (GX-Pangolin) was 0.089 µg/mL, the EC50 (Rs4081) was > 10 µg/mL and the EC50 (BtKY72) was 0.005 µg/mL. For the same substance, the EC50 (BM-4831) was 0.711 µg/mL, the EC50 (Yunnan2011) was > 10 µg/mL and the EC50 (RmYN02) was > 10 µg/mL. The EC50 (SHC014) was 0.003 µg/mL, the EC50 (RaTG13) was > 10 µg/mL and the Kd (SARS-CoV-2 Spike) was 0.983 pM.
COVA1-16 was tested, and the EC50 (Rf1) was 7.07 µg/mL, the EC50 (SARS-CoV) was > 10 µg/mL and the EC50 (WIV1) was > 10 µg/mL. For the same substance, the EC50 (GX-Pangolin) was 0.043 µg/mL, the EC50 (Rs4081) was > 10 µg/mL and the EC50 (BtKY72) was > 10 µg/mL. For the same substance, the EC50 (BM-4831) was > 10 µg/mL, the EC50 (Yunnan2011) was > 10 µg/mL and the EC50 (RmYN02) was > 10 µg/mL. The EC50 (SHC014) was 0.049 µg/mL, the EC50 (RaTG13) was 0.614 µg/mL and the Kd [1] was 19500 pM. The Kd (SARS-CoV-2 Spike) was 1.29 pM.
With DH1047 the EC50 (Rf1) was > 10 µg/mL, the EC50 (SARS-CoV) was 0.009 µg/mL and the EC50 (WIV1) was 0.003 µg/mL. For the same substance, the EC50 (GX-Pangolin) was 0.006 µg/mL, the EC50 (Rs4081) was 0.013 µg/mL and the EC50 (BtKY72) was 0.003 µg/mL. The EC50 (BM-4831) was 0.002 µg/mL, the EC50 (Yunnan2011) was 0.011 µg/mL and the EC50 (RmYN02) was 0.01 µg/mL. It also gave an EC50 (SHC014) of 0.003 µg/mL, an EC50 (RaTG13) of 0.003 µg/mL and a Kd (SARS-CoV-2 Spike) of 1.06 pM.
For REGN10985, the EC50 (Rf1) was > 10 µg/mL, the EC50 (SARS-CoV) was > 10 µg/mL and the EC50 (WIV1) was 0.003 µg/mL. The EC50 (GX-Pangolin) was 3.3 µg/mL, the EC50 (Rs4081) was > 10 µg/mL and the EC50 (BtKY72) was 0.001 µg/mL. For the same substance, the EC50 (BM-4831) was 0.72 µg/mL, the EC50 (Yunnan2011) was > 10 µg/mL and the EC50 (RmYN02) was > 10 µg/mL. The EC50 (SHC014) was 0.003 µg/mL, the EC50 (RaTG13) was > 10 µg/mL and the Kd (SARS-CoV-2 Spike) was 8.72 pM.
S2H97 gave an EC50 (Rf1) of 0.005 µg/mL, an EC50 (SARS-CoV) of 0.015 µg/mL and an EC50 (WIV1) of 0.54 µg/mL. It also gave an EC50 (GX-Pangolin) of 0.026 µg/mL, an EC50 (Rs4081) of 0.009 µg/mL and an EC50 (BtKY72) of 0.006 µg/mL. The EC50 (BM-4831) was 0.009 µg/mL, the EC50 (Yunnan2011) was 0.124 µg/mL and the EC50 (RmYN02) was 0.011 µg/mL. For the same substance, the EC50 (SHC014) was > 10 µg/mL, the EC50 (RaTG13) was 0.008 µg/mL and the Kd (SARS-CoV-2 Spike) was 4.53 pM.
In the case of S2X259, the EC50 (Rf1) is reported as > 10 µg/mL, the EC50 (SARS-CoV) is reported as 0.016 µg/mL and the EC50 (WIV1) is reported as 0.005 µg/mL. It also gave an EC50 (GX-Pangolin) of 0.035 µg/mL, an EC50 (Rs4081) of 2.29 µg/mL and an EC50 (BtKY72) of 0.004 µg/mL. For the same substance, the EC50 (BM-4831) was 0.005 µg/mL, the EC50 (Yunnan2011) was > 10 µg/mL and the EC50 (RmYN02) was > 10 µg/mL. The EC50 (SHC014) was 0.007 µg/mL, the EC50 (RaTG13) was > 10 µg/mL and the Kd (SARS-CoV-2 Spike) was 0.895 pM.
In the case of S309, the EC50 (Rf1) is reported as > 10 µg/mL, the EC50 (SARS-CoV) is reported as 0.011 µg/mL and the EC50 (WIV1) is reported as 0.023 µg/mL. The EC50 (GX-Pangolin) was 0.052 µg/mL, the EC50 (Rs4081) was > 10 µg/mL and the EC50 (BtKY72) was > 10 µg/mL. For the same substance, the EC50 (BM-4831) was 0.286 µg/mL, the EC50 (Yunnan2011) was > 10 µg/mL and the EC50 (RmYN02) was > 10 µg/mL. For the same substance, the EC50 (RaTG13) was > 10 µg/mL and the Kd (SARS-CoV-2 Spike) was 1.94 pM.
